Measurements taken from PMC9733425 (Journal of structural biology, 2022).

Biological target: the molecule itself
Assay: SEC-MALS

B1: SAM1 domain of SASH1 (WT human SAM1::6xHis, residues 627-703) (domain or fragment, UniProt O94885 627-703, looked up)
chain: RRKGRPPQPKSVEDLLDRINLKEHMPTFLFNGYEDLDTFKLLEEEDLDELNIRDPEHRAVLLTAVELLQEYDSNSDQ
**Q.** B1 was tested. Which “stoichiometry N” value did it give?
**A.** 4
